Measurements from patent publication US7262177B2, “Conjugates of glycosylated/galactosylated peptide, bifunctional linker, and nucleotidic monomers/polymers, and related compositions and methods of use” (priority 2000, dated 2007).
Where “and” joins values, the source holds several entries; their conditions need not be identical. Equal values may be shown once.

What was measured:
[1] = Serum stability of po 1-mer conjugate, HPLC method (a), column 1; format: in vitro ADME; details: 37° C.; for Average Peak area / Trial Peak area: human serum
Description: (§1) Studies were carried out at physiological conditions. The analyses were accomplished using reversed-phase HPLC and PAGE methods. The raw data are presented in table format (Tables 1, 2 and 3). The serum half-life calculated is t1/2=1/k (0.693), derived from the [A]=[A0]e^−kt, where [A0] is the original amount of substrate, [A] is the measured substrate level, t is time (min), and k is the first-order rate constant.
(a) Reaction Conditions: 50 μl of human serum were added to 24 nmoles of HPLC purified po 1-mer Conjugate and incubated at 37° C. for allotted time periods (0 min, 60 min, 180 min, 360 min). Column 1: flow 1.0 ml/min, Rainin MicroSorb C18 reversed-phase column HPLC gradient: 100% NH4OAc for 10 min, then 0→100% CH3CN in 25 min. (0.1 M NH4OAc) (Table 1).

[2] = Serum stability of po 1-mer conjugate, HPLC method (b), column 2; format: in vitro ADME; details: 37° C.; for Average Peak area / Trial Peak area: human serum
Description: as §1
(b) Reaction Conditions: 100 μl of human serum were added to 20 nmoles of HPLc purified po 1-mer Conjugate and incubated at 37° C. for allotted time periods (0 min, 15 min, 60 min, 120 min, 240 min). HPLC gradient: 100% Buffer A (0.05M NaxPO4 (pH 5.8) in 2% CH3CN) for 5 min, then 2% CH3CN to 50% CH3CN over the next 20 min. Column 2: flow 4.7 ml/min, Rainin Semi-Preparative C18 reversed-phase column (10 mm i.d.×250 mm L) (Table 2).

Hep G2 cells = assay: Cellular uptake of 5FU 1-mer conjugates by Hep G2 cells; format: cell-based, human
Description: Hep G2 cells were passaged into 2 cm^2 wells and grown in RPMI 1640 medium, which was supplemented with L-glutamine (10-040, CV) to a density of 0.3×10^6 to 0.4×10^6 cells per well (48-well cluster plate, Costar, Cambridge, Mass.). […] Then, an aliquot of the medium was saved for scintillation counting and the remainder of the medium aspirated from the well. The cells were washed with D-PBS (2×0.5 ml), treated with 0.25% trypsin (37° C., 2 minutes; trypsin prepared in HBSS with 1.0 mM EDTA) and suspended in fresh growth medium containing 10% FCS. The suspended cells were layered over silicon oil (0.5 ml) in a 1.7 ml conical microcentrifuge tube and pelleted by centrifugation at 14,000 rpm (12,000 g) for 30 seconds. The supernatant was carefully decanted and the cell pellet was lysed with 100 μl of a solution containing 0.5% NP 40, 100 mM sodium chloride, 14 mM Tris/HCl and 30% acetonitrile. The amount of radioactivity, and by inference the amount of neoglycoconjugate or oligomer associated with the cell lysate, was determined by scintillation counting.

TSU carcinoma cells = assay: Viability of TSU carcinoma cells; format: cell-based, human; details: TSU carcinoma cells treated with conjugate
TS [3] = target: T1, TS (Homo sapiens, UniProt P04818); assay: TS activity in tumor of xenografted mice; format: in vivo, CD-1 nude mice; details: treated
T1 construct: from tissue; host or cells: subcutaneous Hep G2 xenograft tumour from CD-1 nude mice
T1 sequence (P04818 2-313 limits assumed): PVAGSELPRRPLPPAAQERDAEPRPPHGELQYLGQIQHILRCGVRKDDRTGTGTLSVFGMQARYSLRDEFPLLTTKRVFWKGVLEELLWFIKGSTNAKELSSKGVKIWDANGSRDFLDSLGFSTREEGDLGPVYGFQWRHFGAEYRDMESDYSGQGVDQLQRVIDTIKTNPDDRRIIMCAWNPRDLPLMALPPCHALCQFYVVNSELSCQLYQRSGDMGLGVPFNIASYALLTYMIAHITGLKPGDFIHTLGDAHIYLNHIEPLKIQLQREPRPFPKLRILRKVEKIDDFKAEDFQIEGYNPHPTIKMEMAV
Description: (§2) Initial effects of po 1-mer treatment were noticed after about 5 weeks. Overall, however, tumors continued to grow after this point, but at a slower rate than the control. For instance, at 8 weeks post po 1-mer treatment, the average tumor weight of xenografted human hepatomas in nude CD-1 mice was about 7 g, whereas the average tumor weight of the saline control was about 15 g. Histological analysis was performed after 8 weeks in order to compare the tumors of the control cohort with the tumors of po 1-mer-treated nude mice. […] This weight loss may then be due to the tumor burden, rather than the therapeutic treatment, and was continued through week 8.
(§3) After the treatment was completed, tumors were analyzed both histologically and for TS activity. […] Therefore, it can be deduced that increasing the dose of po 1-mer increased the efficacy without increasing systemic toxicity.

TS [4] = target: T2, TS (Mus musculus, UniProt P07607); assay: TS activity in liver of xenografted mice; format: in vivo, CD-1 nude mice; details: treated
T2 construct: from tissue; host or cells: liver of CD-1 nude mice
T2 sequence (P07607 whole entry): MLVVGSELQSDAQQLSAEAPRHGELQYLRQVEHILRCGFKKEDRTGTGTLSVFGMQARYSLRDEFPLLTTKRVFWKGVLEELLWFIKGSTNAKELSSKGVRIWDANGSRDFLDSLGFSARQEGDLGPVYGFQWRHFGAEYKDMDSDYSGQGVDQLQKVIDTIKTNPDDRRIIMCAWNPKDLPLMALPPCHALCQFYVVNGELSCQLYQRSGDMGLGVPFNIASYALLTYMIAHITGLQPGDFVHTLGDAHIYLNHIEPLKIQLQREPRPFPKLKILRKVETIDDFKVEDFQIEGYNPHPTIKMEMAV
Description: as §2, §3

[5] = 0 min, listed as po 1-mer Conjugate

CC(=O)N[C@H]1[C@H](OCCCCCCNC(=O)CC[C@H](NC(=O)CC[C@H](NC(=O)[C@H](Cc2ccc(O)cc2)NC(=O)C2CCC(CN3C(=O)CC(SCCCCCCOP(=O)(O)OC[C@H]4O[C@@H](n5cc(F)c(=O)[nH]c5=O)C[C@@H]4O)C3=O)CC2)C(=O)NCCCCCCO[C@@H]2O[C@H](CO)[C@H](O)[C@H](O)[C@H]2NC(C)=O)C(=O)NCCCCCCO[C@@H]2O[C@H](CO)[C@H](O)[C@H](O)[C@H]2NC(C)=O)O[C@H](CO)[C@H](O)[C@@H]1O (stereo partly shown) [po 1-mer, YEE(ahGalNAc)3-SMCC-poFU]
Average Peak area ([1]; 0 min): 17.78
Trial Peak area [1, 5]: 17.65 and 17.92
Average Peak area ([1]; 60 min): 13.77
Trial Peak area ([1]; 60 min, listed as po 1-mer Conjugate): 15.11 and 12.43
Average Peak area ([1]; 180 min): 10.17
Trial Peak area ([1]; 180 min, listed as po 1-mer Conjugate): 9.356 and 10.9908
Average Peak area ([1]; 360 min): 11.4
Trial Peak area ([1]; 360 min): 11.4
half-life at 480 µM ([1]; human, serum, HPLC (a), read-out: serum t1/2): 9.62 h
Average Peak area ([2]; 0 min): 13.57
Trial Peak area [2, 5]: 13.07 and 12.68 and 14.97
Average Peak area ([2]; 15 min): 14.86
Trial Peak area ([2]; 15 min): 14.86
Average Peak area ([2]; 60 min): 14.22
Trial Peak area ([2]; 60 min): 14.22
Average Peak area ([2]; 120 min): 11.96
Trial Peak area ([2]; 120 min): 11.96
Average Peak area ([2]; 240 min): 9.727
Trial Peak area ([2]; 240 min): 9.727
half-life at 200 µM ([2]; human, serum, HPLC (b), read-out: serum t1/2): 6.78 h
cellular uptake (Hep G2 cells; 1 μM, 30 min): 5 pmoles/million cells
cellular uptake (Hep G2 cells; 1 μM, 480 min): 24.75 pmoles/10^6 cells
cellular uptake (peak) (Hep G2 cells; 1 μM, 480 min): 25 pmoles/million cells
cellular uptake (Hep G2 cells; 2 μM, 480 min): about 26 pmole/10^6 cells
maximal cellular uptake (Hep G2 cells; 4 μM): 36 pmoles/million cells
maximum cellular uptake (Hep G2 cells; 4 μM, 480 min): about 36 pmoles/10^6 cells
maximal cellular uptake (Hep G2 cells; 8 μM): 43 pmoles/million cells
cellular uptake (Hep G2 cells; 8 μM, 120 min): 35 pmoles/10^6 cells
maximum cellular uptake (Hep G2 cells; 8 μM, 480 min): ~42 pmoles/10^6 cells
viability of cells (TSU carcinoma cells): not affected
TS activity, COUNTS/MG PROTEIN (TS [3]; weekly 10 mg/kg): 17641 counts/mg protein
TS activity, COUNTS/MG PROTEIN (TS [3]; weekly 15 mg/kg): 8591 counts/mg protein
TS activity, COUNTS/MG PROTEIN (TS [4]; weekly 10 mg/kg): 19718 counts/mg protein
TS activity, COUNTS/MG PROTEIN (TS [4]; weekly 15 mg/kg): 18989 counts/mg protein
